Patent US20140087995A1 (published 2014)
Numbered stars: 1 amine (or outer) side, 2 acyl side, 3 side chain; on linkers, the order of the positions; unused ones are H or OH. Bridge positions count the residues as written; N and C are the ends. Side chains are listed from the residue outwards. Ends that are not written are not given here. * marks the point of attachment. C20 diacid = O=C(O)CCCCCCCCCCCCCCCCCCC(=O)*; C18 diacid = O=C(O)CCCCCCCCCCCCCCCCC(=O)*; C16 diacid = O=C(O)CCCCCCCCCCCCCCC(=O)*; γGlu = O=C(O)[C@H](CCC(=O)[*:2])N[*:1]; C14 diacid = O=C(O)CCCCCCCCCCCCC(=O)*

T1: human calcitonin receptor (human, UniProt P30988 25-474)
T1 construct: whole, on cells; Membranes of BHK cells stably transfected with the human calcitonin receptor (Assay VII); also called hCTR; hCT
T1 sequence (looked up): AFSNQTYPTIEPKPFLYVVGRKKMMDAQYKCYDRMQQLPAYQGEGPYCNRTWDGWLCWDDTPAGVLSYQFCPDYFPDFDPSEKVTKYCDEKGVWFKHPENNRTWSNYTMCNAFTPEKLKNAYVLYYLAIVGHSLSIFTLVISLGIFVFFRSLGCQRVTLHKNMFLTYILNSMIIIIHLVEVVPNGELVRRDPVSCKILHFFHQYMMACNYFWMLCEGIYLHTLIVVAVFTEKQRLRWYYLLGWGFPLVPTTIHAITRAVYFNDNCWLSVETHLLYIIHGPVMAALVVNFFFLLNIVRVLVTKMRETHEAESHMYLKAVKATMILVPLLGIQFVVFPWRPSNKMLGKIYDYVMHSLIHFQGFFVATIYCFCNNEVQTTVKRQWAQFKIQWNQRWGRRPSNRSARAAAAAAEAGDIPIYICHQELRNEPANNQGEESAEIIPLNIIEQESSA

B1: N^ε1-[(4S)-4-carboxy-4-(13-carboxytridecanoylamino)butanoyl]-[Arg17,Pro21,Pro27,His34]-h-amylin (peptide)
peptide: K([γGlu-C14 diacid])CNTATCATQRLANFLRHSSPNFGAIPSSTNVGHNTY-NH2
modifications: disulfide 2-7; N-terminus assumed
SMILES: CC[C@H](C)[C@H](NC(=O)[C@H](C)NC(=O)CNC(=O)[C@H](Cc1ccccc1)NC(=O)[C@H](CC(N)=O)NC(=O)[C@@H]1CCCN1C(=O)[C@H](CO)NC(=O)[C@H](CO)NC(=O)[C@H](Cc1c[nH]cn1)NC(=O)[C@H](CCCNC(=N)N)NC(=O)[C@H](CC(C)C)NC(=O)[C@H](Cc1ccccc1)NC(=O)[C@H](CC(N)=O)NC(=O)[C@H](C)NC(=O)[C@H](CC(C)C)NC(=O)[C@H](CCCNC(=N)N)NC(=O)[C@H](CCC(N)=O)NC(=O)[C@@H](NC(=O)[C@H](C)NC(=O)[C@@H]1CSSC[C@H](NC(=O)[C@@H](N)CCCCNC(=O)CC[C@H](NC(=O)CCCCCCCCCCCCC(=O)O)C(=O)O)C(=O)N[C@@H](CC(N)=O)C(=O)N[C@@H]([C@@H](C)O)C(=O)N[C@@H](C)C(=O)N[C@@H]([C@@H](C)O)C(=O)N1)[C@@H](C)O)C(=O)N1CCC[C@H]1C(=O)N[C@@H](CO)C(=O)N[C@@H](CO)C(=O)N[C@H](C(=O)N[C@@H](CC(N)=O)C(=O)N[C@H](C(=O)NCC(=O)N[C@@H](Cc1c[nH]cn1)C(=O)N[C@@H](CC(N)=O)C(=O)N[C@H](C(=O)N[C@@H](Cc1ccc(O)cc1)C(N)=O)[C@@H](C)O)C(C)C)[C@@H](C)O
B2: N^ε1-[(4S)-4-carboxy-4-(15-carboxypentadecanoylamino)butanoyl]-[Arg17,Pro21,Pro27,His34]-h-amylin (peptide)
peptide: K([γGlu-C16 diacid])CNTATCATQRLANFLRHSSPNFGAIPSSTNVGHNTY-NH2
modifications: disulfide 2-7; N-terminus assumed
SMILES: CC[C@H](C)[C@H](NC(=O)[C@H](C)NC(=O)CNC(=O)[C@H](Cc1ccccc1)NC(=O)[C@H](CC(N)=O)NC(=O)[C@@H]1CCCN1C(=O)[C@H](CO)NC(=O)[C@H](CO)NC(=O)[C@H](Cc1c[nH]cn1)NC(=O)[C@H](CCCNC(=N)N)NC(=O)[C@H](CC(C)C)NC(=O)[C@H](Cc1ccccc1)NC(=O)[C@H](CC(N)=O)NC(=O)[C@H](C)NC(=O)[C@H](CC(C)C)NC(=O)[C@H](CCCNC(=N)N)NC(=O)[C@H](CCC(N)=O)NC(=O)[C@@H](NC(=O)[C@H](C)NC(=O)[C@@H]1CSSC[C@H](NC(=O)[C@@H](N)CCCCNC(=O)CC[C@H](NC(=O)CCCCCCCCCCCCCCC(=O)O)C(=O)O)C(=O)N[C@@H](CC(N)=O)C(=O)N[C@@H]([C@@H](C)O)C(=O)N[C@@H](C)C(=O)N[C@@H]([C@@H](C)O)C(=O)N1)[C@@H](C)O)C(=O)N1CCC[C@H]1C(=O)N[C@@H](CO)C(=O)N[C@@H](CO)C(=O)N[C@H](C(=O)N[C@@H](CC(N)=O)C(=O)N[C@H](C(=O)NCC(=O)N[C@@H](Cc1c[nH]cn1)C(=O)N[C@@H](CC(N)=O)C(=O)N[C@H](C(=O)N[C@@H](Cc1ccc(O)cc1)C(N)=O)[C@@H](C)O)C(C)C)[C@@H](C)O
B3: N^ε1-[(4S)-4-carboxy-4-(17-carboxyheptadecanoylamino)butanoyl]-[Arg17,Pro21,Pro27,His34]-h-amylin (peptide)
peptide: K([γGlu-C18 diacid])CNTATCATQRLANFLRHSSPNFGAIPSSTNVGHNTY-NH2
modifications: disulfide 2-7; N-terminus assumed
SMILES: CC[C@H](C)[C@H](NC(=O)[C@H](C)NC(=O)CNC(=O)[C@H](Cc1ccccc1)NC(=O)[C@H](CC(N)=O)NC(=O)[C@@H]1CCCN1C(=O)[C@H](CO)NC(=O)[C@H](CO)NC(=O)[C@H](Cc1c[nH]cn1)NC(=O)[C@H](CCCNC(=N)N)NC(=O)[C@H](CC(C)C)NC(=O)[C@H](Cc1ccccc1)NC(=O)[C@H](CC(N)=O)NC(=O)[C@H](C)NC(=O)[C@H](CC(C)C)NC(=O)[C@H](CCCNC(=N)N)NC(=O)[C@H](CCC(N)=O)NC(=O)[C@@H](NC(=O)[C@H](C)NC(=O)[C@@H]1CSSC[C@H](NC(=O)[C@@H](N)CCCCNC(=O)CC[C@H](NC(=O)CCCCCCCCCCCCCCCCC(=O)O)C(=O)O)C(=O)N[C@@H](CC(N)=O)C(=O)N[C@@H]([C@@H](C)O)C(=O)N[C@@H](C)C(=O)N[C@@H]([C@@H](C)O)C(=O)N1)[C@@H](C)O)C(=O)N1CCC[C@H]1C(=O)N[C@@H](CO)C(=O)N[C@@H](CO)C(=O)N[C@H](C(=O)N[C@@H](CC(N)=O)C(=O)N[C@H](C(=O)NCC(=O)N[C@@H](Cc1c[nH]cn1)C(=O)N[C@@H](CC(N)=O)C(=O)N[C@H](C(=O)N[C@@H](Cc1ccc(O)cc1)C(N)=O)[C@@H](C)O)C(C)C)[C@@H](C)O
B4: N^ε1-[(4S)-4-carboxy-4-(19-carboxynonadecanoylamino)butanoyl]-[Asp14,Arg17,Pro21,Pro27,Pro34,Arg35]-h-amylin (peptide)
peptide: K([γGlu-C20 diacid])CNTATCATQRLADFLRHSSPNFGAIPSSTNVGPRTY-NH2
modifications: disulfide 2-7; N-terminus assumed
SMILES: CC[C@H](C)[C@H](NC(=O)[C@H](C)NC(=O)CNC(=O)[C@H](Cc1ccccc1)NC(=O)[C@H](CC(N)=O)NC(=O)[C@@H]1CCCN1C(=O)[C@H](CO)NC(=O)[C@H](CO)NC(=O)[C@H](Cc1c[nH]cn1)NC(=O)[C@H](CCCNC(=N)N)NC(=O)[C@H](CC(C)C)NC(=O)[C@H](Cc1ccccc1)NC(=O)[C@H](CC(=O)O)NC(=O)[C@H](C)NC(=O)[C@H](CC(C)C)NC(=O)[C@H](CCCNC(=N)N)NC(=O)[C@H](CCC(N)=O)NC(=O)[C@@H](NC(=O)[C@H](C)NC(=O)[C@@H]1CSSC[C@H](NC(=O)[C@@H](N)CCCCNC(=O)CC[C@H](NC(=O)CCCCCCCCCCCCCCCCCCC(=O)O)C(=O)O)C(=O)N[C@@H](CC(N)=O)C(=O)N[C@@H]([C@@H](C)O)C(=O)N[C@@H](C)C(=O)N[C@@H]([C@@H](C)O)C(=O)N1)[C@@H](C)O)C(=O)N1CCC[C@H]1C(=O)N[C@@H](CO)C(=O)N[C@@H](CO)C(=O)N[C@H](C(=O)N[C@@H](CC(N)=O)C(=O)N[C@H](C(=O)NCC(=O)N1CCC[C@H]1C(=O)N[C@@H](CCCNC(=N)N)C(=O)N[C@H](C(=O)N[C@@H](Cc1ccc(O)cc1)C(N)=O)[C@@H](C)O)C(C)C)[C@@H](C)O

target: T1, human calcitonin receptor; experiment: ratio of IC50 at hCTR over IC50 at hAmylin-R (SPA competition assays)
Method: The resulting pellet was resuspended, homogenized and centrifuged (20.000 rpm, 15 min) in a buffer containing 20 mM Na-HEPES and 0.1 mM EDTA (pH 7.4, buffer 2). The resulting pellet was resuspended in buffer 2 and protein concentration was measured (BCA protein Assay, Pierce). The homogenate was kept cold during the whole procedure. The membranes were kept at −80° C. until use. The assay was performed in a 384 well Optiplate (PerkinElmer) in a total volume of 40 ul. Membranes were mixed with SPA beads. Final concentration of membranes 35 ng/μL final and SPA beads was 0.05 mg/well. Test-compounds were dissolved in DMSO and further diluted in assay buffer (50 mM Hepes, pH 7.4, 1 mM CaCl2, 5 mM MgCl₂, 0.1% OA and 0.02% Tween20). […] The final mixture was incubated with shaking at 400 rpm for 120 min at 25° C. prior to centrifugation (1500 rpm, 10 min). Samples were analyzed on TopCounter™ (Packard). The IC₅₀ was calculated using (one site binding competition analysis) GraphPad Prism5 as a measure of receptor affinity.
Membranes were prepared in the following way; the cells were rinsed with PBS and incubated with Versene for approximately 5 min before harvesting. The cells were flushed with PBS and the cell-suspension was centrifuged for 5 min at 1000 rpm. Cells were homogenized (Ultrathurrax) in a buffer containing 20 mM Na-HEPES and 10 mM EDTA (pH 7.4) and centrifuged at 20.000 rpm for 15 min. The resulting pellet was resuspended, homogenized and centrifuged (20.000 rpm, 15 min) in a buffer containing 20 mM Na-HEPES and 0.1 mM EDTA (pH 7.4, buffer 2). The resulting pellet was resuspended in buffer 2 and protein concentration was measured (BCA protein Assay, Pierce). The homogenate was kept cold during the whole procedure. The membranes were kept at −80° C. until use. Assay was performed in a 384 well Optiplate (PerkinElmer) in a total volume of 40 ul. Membranes were mixed with SPA beads.

Binder | Ratio hCT/hAmylin binding
B1 | 23.5
B2 | 18.5
B3 | 59.4
B4 | 151

target: T1, human calcitonin receptor; experiment: SPA competition against 125I-calcitonin, membranes of BHK cells with human calcitonin receptor (Assay VII)
Method: Membranes were prepared in the following way; the cells were rinsed with PBS and incubated with Versene for approximately 5 min before harvesting. The cells were flushed with PBS and the cell-suspension was centrifuged for 5 min at 1000 rpm. Cells were homogenized (Ultrathurrax) in a buffer containing 20 mM Na-HEPES and 10 mM EDTA (pH 7.4) and centrifuged at 20.000 rpm for 15 min. The resulting pellet was resuspended, homogenized and centrifuged (20.000 rpm, 15 min) in a buffer containing 20 mM Na-HEPES and 0.1 mM EDTA (pH 7.4, buffer 2). The resulting pellet was resuspended in buffer 2 and protein concentration was measured (BCA protein Assay, Pierce). The homogenate was kept cold during the whole procedure. The membranes were kept at −80° C. until use. Assay was performed in a 384 well Optiplate (PerkinElmer) in a total volume of 40 ul. Membranes were mixed with SPA beads. Final concentration of membranes 35 ng/μL final and Final concentration of SPA beads was 0.05 mg/well. Test-compounds were dissolved in DMSO and further diluted in assay buffer (50 mM Hepes, pH 7.4, 1 mM CaCl2, 5 mM MgCl₂, 0.1% OA and 0.02% Tween20). […] The final mixture was incubated for 120 min with shaking at 400 rpm at 25° C. prior to centrifugation (1500 rpm, 10 min). Samples were analyzed on TopCounter™ (Packard). The […] was calculated using (one site binding competition analysis) GraphPad Prism5 as a measure of receptor affinity.

Binder | IC50 [nM]
B1 | 24.3
B2 | 10.8
B3 | 22.7
B4 | 42.5
